Measurements as given in publication PMC5356539.
Where “and” joins values, the source holds several entries; their conditions need not be identical. Identical values can stand only once.

Columns and labels:
Experiment in all cases: plate binding assay (luminescent)
sNRP1 (human) = sNRP1 (human) (UniProt O14786); details: 3'-biotinylated cytidine (bis)phosphate ligated, ELISA plate-immobilized protein, BSA block, PBS with or without 0.5 mM MgCl2, or HBSS with 1.26 mM Ca2+ and 0.9 mM Mg2+, neutral pH, 2 h at 37 C or overnight …
Sequence of sNRP1 (human) (O14786 22-640): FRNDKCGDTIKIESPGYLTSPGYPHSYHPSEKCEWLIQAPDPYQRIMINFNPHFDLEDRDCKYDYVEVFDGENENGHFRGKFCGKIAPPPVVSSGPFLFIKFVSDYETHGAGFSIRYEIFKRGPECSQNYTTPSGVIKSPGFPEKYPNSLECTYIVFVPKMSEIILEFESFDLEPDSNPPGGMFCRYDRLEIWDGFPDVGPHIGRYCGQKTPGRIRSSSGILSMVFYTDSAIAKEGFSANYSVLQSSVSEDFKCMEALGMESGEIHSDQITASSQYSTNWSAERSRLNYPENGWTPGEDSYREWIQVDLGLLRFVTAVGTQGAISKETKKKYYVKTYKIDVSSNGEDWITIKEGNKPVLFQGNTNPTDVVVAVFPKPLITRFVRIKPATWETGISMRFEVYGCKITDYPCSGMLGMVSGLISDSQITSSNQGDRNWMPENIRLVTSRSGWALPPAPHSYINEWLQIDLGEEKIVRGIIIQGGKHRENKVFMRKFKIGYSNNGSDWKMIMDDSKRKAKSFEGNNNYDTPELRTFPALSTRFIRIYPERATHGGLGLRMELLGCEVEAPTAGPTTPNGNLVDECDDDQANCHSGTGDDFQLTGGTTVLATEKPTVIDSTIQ

NRP1-Fc (rat) = details: 3'-biotinylated cytidine (bis)phosphate ligated; ELISA plate-immobilized protein, BSA block; PBS with or without 0.5 mM MgCl2, or HBSS with 1.26 mM Ca2+ and 0.9 mM Mg2+; neutral pH; 2 h at 37 C or overnight …
AGO2 full-length (human) = details: Ca2+ and Mg2+; 3'-biotinylated cytidine (bis)phosphate ligated; ELISA plate-immobilized protein, BSA block; PBS with or without 0.5 mM MgCl2, or HBSS with 1.26 mM Ca2+ and 0.9 mM Mg2+; neutral pH; 2 h at 37 C or overnight …
poly-ornithine = details: miRNA species not given; 3'-biotinylated cytidine (bis)phosphate ligated; ELISA plate-immobilized protein, BSA block; PBS with or without 0.5 mM MgCl2, or HBSS with 1.26 mM Ca2+ and 0.9 mM Mg2+; neutral pH; 2 h at 37 C or overnight

With miR-138 the Kd (sNRP1 (human); 0.9 mM Mg2+, 1.2 mM Ca2+ (1.26 in Methods)) was 772 pM and the Kd (sNRP1 (human)) was 348 pM.

In the case of miR-422, the Kd (sNRP1 (human)) is reported as 344 pM and 138 pM.

miR-331 was tested, and the Kd (NRP1-Fc (rat)) was 911 pM.

In the case of miR-20a, the Kd (AGO2 full-length (human)) is reported as 7270 pM and the Kd (poly-ornithine) is reported as 6670 pM.
